Results on 5 molecules are retold here after US10947270B2, “Targeted prodrug cytosine deaminase fusion carrier and application thereof” (National Yang-Ming University, priority 2015, dated 2021).

Values joined by “and” are separate entries in the source; they are usually repeats but may differ in a detail not shown here. Equal values may be shown once. Read-outs that look alike come from different tables or passages of the source. Bounds are passed on as bounds.

The format of data set [1] is physicochemical. Here is the method: The radiochemical purity of ^111In-DTPA-yCD and ^111In-DTPA-RGD4C-yCD are greater than 95% after marking and purification. Both are stored in HEPES buffer liquid (4° C.) for 48 hours, and the radiochemical purity is still higher than 85% (see FIG. 26). Both are placed in fetal bovine serum (37° C.) to simulate their stability in vivo. After 48 hours, the radiochemical purity of both is about 80%. It is shown that radioactive metal indium-111 is stably chelated on DTPA.

On the set-up of data set [2]: species or system nude mice. To be noted: mouse, in vivo. Here is the method: The arrow is marked as a tumor.
In in-vitro cell experiment, the binding ability of ^111In-DTPA-RGD4C-yCD and the integrin αvβ3 receptor on the cell membrane has been verified. In order to know whether the drug can show its target effect in vivo, integrin αvβ3 is seeded subcutaneously in the right side of nude mice. After the high-expression U87MG tumor cells are grown to 100 mm^3, 60-70 μCi (3-3.5 μg) of ^111In-DTPA-yCD and ^111In-DTPA-RGD4C-yCD are injected directly into the tumor, the images are collected by microSPECT/CT after 1, 4, 24, 48 hours. It can be seen from the image (see FIG. 31) that the drug retention in the ^111In-DTPA-RGD4C-yCD group (orange arrow) is better than that in the ^111In-DTPA-yCD, and the target ligand RGD4C is missing. ^111In-DTPA-yCD enters the systemic blood circulation system within 1 hour and is metabolized by normal organs. From FIG. 31, it can be seen that the kidney is the main metabolic organ of these two drugs. […] After 24-48 hours, the amount of accumulation in the tumor is running out. On the contrary, ^111In-DTPA-RGD4C-yCD is bound with integrin αvβ3 on tumor cells, then the ratio of drug entering the systemic blood circulation is reduced, and the metabolic rate is slow.

On the set-up of data set [3]: species or system nude mice. The settings on record: mouse, in vivo. Here is the method: ES-2-luc tumor nude mice is intraperitoneally injected with 50 μCi (2.5 μg) ^111In-DTPA-yCD and ^111In-DTPA-RGD4C-yCD for 1, 4 and 24 hours, then organs are collected and their radioactivity is measured to obtain biodistribution, as shown in Table 19 and Table 20. […] In addition to the part accumulated in the tumor, another part of the drug is absorbed back into the blood circulation system by the peritoneal blood vessels. […] The pancreatic radioactivity of the two drugs is observed after 1 hour of injection. The pancreatic radioactivity of ^111In-DTPA-RGD4C-yCD (8.06±0.88% ID/g) is higher than that of ^111In-DTPA-yCD (3.91±0.36% ID/g), it is suspected that tumor cells invade the pancreas.
This is another data set of the same source.

Data set [4] can be described thus: Enzyme kinetic analysis of yCD series proteins after DTPA modification, marking and purification. It is filed as biochemical. The settings on record: for Vmax compared with the original enzyme activity: after EDTA with a 10-fold molar excess of protein. From the text: The enzyme activity of yCD is not affected by DTPA modification.
FIGS. 24A-24B show the kinetic curve of yCD series protein modified, labeled and purified by DTPA. The enzyme activity of the two proteins is not affected by the labeling conditions. After adding EDTA with a 10-fold molar excess of protein, and it is competitively purified, In-DTPA-yCD compared with the original enzyme activity.
The curve and enzyme kinetic parameters (see FIG. 18 and Table 13) are fitted by the […] protein enzyme kinetics through the Michaelis-Menten formula in the Graph prism program.
Before the protein is labeled by radioisotope, its enzyme function must be determined, and based on the original enzyme function, it should be examined whether it will be affected during the radioactive marking process. The curve and enzyme kinetic parameters of protein are fitted by the Michaelis-Menten formula in the Graph prism program. […] Whether the yCD and RGD4C-yCD protein detected by the same method will be affected under the conditions of DTPA modification, marking and purification. […] After the completion of the radioactive metal mark, it is necessary to add EDTA of 10-fold protein Moire number and react at room temperature for 1 hour to compete for the radioactive metal isotope indium which is not chelated on DTPA. The EDTA in this step also has the chance to chelate the metal zinc ion of the enzyme catalytic center, the enzyme activity is impaired, so it is necessary to analyze the enzyme activity of In-DTPA-yCD and In-RGD4C-yCD protein after competition with EDTA. After the EDTA competitive reaction is completed, the enzyme kinetics analysis can be carried out by reducing the EDTA molecule weight through membrane centrifugation method and by replacing the solution with pH 7.0. […] The curve and receptor binding ability parameters of the protein and integrin αvβ3 are fitted under the conditions of DTPA modification, marking and purification by the One site-Specific binding formula in the Graph prism program (see FIG. 25 and Table 18). […] Although the two proteins after marking are greatly affected by the enzyme activity, they still have good binding ability to the integrin αvβ3 receptor. In consideration of the indispensability of EDTA for radiochemical purity, it retains a considerable amount of enzyme activity. In addition, the effect of integrin αvβ3 receptor binding ability is minimal, in combination of cell uptake, biodistribution and angiography experiment, focusing on the evaluation of target results, and the subsequent biological experiment is still carried out by the marking and purification conditions.

[5] abbreviates: after 10x EDTA competition and purification.

As a reminder, the Km is the concentration of substrate that gives half-maximal velocity. By Vmax is commonly meant the top rate of the reaction or transport when substrate is in excess.

B1: ^111In-DTPA-yCD: indium-111 labeled DTPA-yCD protein (conjugate, UniProt Q12178 1-158, looked up)
Cytosine deaminase: MVTGGMASKWDQKGMDIAYEEAALGYKEGGVPIGGCLINNKDGSVLGRGHNMRFQKGSATLHGEISTLENCGRLEGKVYKDTTLYTTLSPCDMCTGAIIMYGIPRCVVGENVNFKSKGEKYLQTRGHEVVVVDDERCKKIMKQFIDERPQDWFEDIGE
modifications: 111In-DTPA label
notes: indium-111 labeled DTPA-yCD protein
In the case of B1, the “radiochemical purity after incubation” value in data set [1] is reported as “about 80%”. Moreover, in data set [2], the “time to enter the systemic blood circulation system” value was at most 1 h. The “radioactivity in the peritoneal cavity reduced to (fraction of 1 hour value)” value in data set [3] is “½”.

B2: DTPA-yCD: yCD protein modified by the metal chelating agent DTPA (conjugate)
chain: MVVTGGMASKWDQKGMDIAYEEAALGYKEGGVPIGGCLINNKDGSVLGRGHNMRFQKGSATLHGEISTLENCGRLEGKVYKDTTLYTTLSPCDMCTGAIIMYGIPRCVVGENVNFKSKGEKYLQTRGHEVVVVDDERCKKIMKQFIDERPQDWFEDIGELEHHHHHH
Consider B2, for which, in data set [4], the Km was 840 µM and 1040 µM; the Vmax came out at 286.8 ± 10.80 µM/min.

B3: In-DTPA-yCD: DTPA-yCD treated with the stable isotope of indium under simulated marking conditions (conjugate)
chain: B2 chain
Consider B3, for which, in data set [4], the Km stood at 1120 ± 58.7 µM, the Vmax was 270.0 ± 6.165 µM/min and the “Vmax compared with the original enzyme activity” value is on record as 47%. In addition, in data set [4] (setting [5]), the Km amounted to 1930 ± 286 µM and the maximum rate (Vmax) turned out to be 125.2 ± 9.652 µM/min.

B4: DTPA-RGD4C-yCD: RGD4C-yCD protein modified by the metal chelating agent DTPA (conjugate)
chain: MACDCRGDCFCVTGGMASKWDQKGMDIAYEEAALGYKEGGVPIGGCLINNKDGSVLGRGHNMRFQKGSATLHGEISTLENCGRLEGKVYKDTTLYTTLSPCDMCTGAIIMYGIPRCVVGENVNFKSKGEKYLQTRGHEVVVVDDERCKKIMKQFIDERPQDWFEDIGELEHHHHHH
With B4, in data set [4], the Km stood at 1160 ± 108 µM and the Vmax was 224.6 ± 8.408 µM/min. The “Vmax compared with the original protein” value in data set [4] (after DTPA modification) is 80%. Further, in data set [4] (listed as DTPA- RGD4C-yCD), the maximal velocity (Vmax) came out at 224.6 ± 8.408 µM/min.

B5: In-DTPA-RGD4C-yCD: DTPA-RGD4C-yCD treated with the stable isotope of indium under simulated marking conditions (conjugate)
chain: B4 chain
B5: in data set [4], the Michaelis constant (Km) worked out at 956 ± 76.8 µM, the Vmax was determined as 226.8 ± 6.918 µM/min and the “Vmax compared with the original enzyme activity” value amounted to 40%. Moreover, in data set [4] (setting [5]), the Km turned out to be 1630 ± 273 µM and the Vmax worked out at 117.7 ± 9.510 µM/min.
